# Test results from article PMC9734383 (2022).
# Values joined by “and” are separate entries in the source; they are usually repeats but may differ in a detail not shown here. Equal entries are not always repeated.
# Key:
# Experiment in all cases: BLI
# [1] = target: H3 HA (recombinant HA of the panel) (influenza A virus (strain  in …))
# [2] = target: H4 HA (recombinant HA of the panel) (influenza A virus (strain  in …))
# [3] = target: H11 HA (recombinant HA of the panel) (influenza A virus (strain  in …))
# [4] = target: H18 HA (recombinant HA of the panel) (influenza A virus, bat H18N11 (strain …))
# [5] = target: H14 HA (recombinant HA of the panel) (influenza A virus (strain  in …))
# [6] = target: H8 HA (recombinant HA of the panel) (influenza A virus (strain  in …))
# [7] = target: H6 HA (recombinant HA of the panel) (influenza A virus (strain  in …))
# [8] = target: H10 HA (recombinant HA of the panel) (influenza A virus (strain  in …))
# [9] = target: H1 HA (recombinant HA of the panel) (influenza A virus (strain  in …))
# [10] = target: H1-HA (A/swine/Guangdong/104/2013) (influenza A virus …)
# [11] = target: H5 HA (recombinant HA of the panel) (influenza A virus (strain  in …))
# [12] = target: H17 HA (recombinant HA of the panel) (influenza A virus, bat H17N10 (strain …))
# [13] = target: H15 HA (recombinant HA of the panel) (influenza A virus (strain  in …))
# [14] = target: H9 HA (recombinant HA of the panel) (influenza A virus (strain  in …))
# [15] = target: H12 HA (recombinant HA of the panel) (influenza A virus (strain  in …))
binder,measurement,setting,value
"PN-SIA28 Fab (Fab, V domains shown) VH: QVQLVESGGGVVQPGRSLRLSCAASGFPFSSYGMHWVRQAPGKGLEWVAGVSYDGSYKYYADSVKGRFTISRDSSKSTLYLQMNSLRPEDTAVYYCARPSAIFGIYIILNGLDVWGQGTTVTVSS VL: EIVLTQSPSSVSASVGDRVTITCRATQGISSWLAWYQQKPGKPPKLLIFGASSLQSGVPSRFSGSGSGTDFTLTISSLQPEDFATYFCQQAHSFPLTFGGGTKVEIK",Kd,[1],144 nM
same,Kd,[2],201 nM
same,Kd,[3],682 nM
same,Kd,[4],40.2 nM
same,Kd,[5],171 nM
same,Kd,[6],36 nM
same,Kd,[7],66.8 nM
same,Kd,[8],1160 nM
same,Kd,[9],0.174 nM
same,Kd,[10],0.26 nM
same,Kd,[11],6.3 nM and 6.79 nM
same,Kd,[12],208 nM
same,Kd,[13],2380 nM
same,Kd,[14],34.3 nM
same,Kd,[15],14.9 µM
